In PMC5812716:

Assays:
MukF FN2 (E. coli) [1] = assay: SEC-MALS; Superose 6 10/300 GL or Superose 12 10/300; 50 mM HEPES pH 7.5, 100 mM NaCl, 1 mM DTT, 1 mM EDTA; 20 °C; mixtures at stated monomer:dimer molar ratios; some runs with 1 mM ATP
MukF FC2 (E. coli) = conditions: scale: % of the maximal ATPase obtained with MukF
MukF FN2 (E. coli) [2] = target: MukF FN2 (E. coli)
[3] = target: fluorescently labelled FN2, FN10, FN3 and FC2 (E. coli); assay: fluorescence correlation spectroscopy (FCS) + fluorescence polarisation; range of Kds told for the four Cy5-labelled MukF fragments together (FN2, FN10 by FCS; FN3, FC2 by FPA); MukB titrated

stoichiometry N (MukF FN2 (E. coli) [1])	MukB ATPase (steady state, phosphate release) with saturating FC2 at a 2.5-fold molar excess, against MukF (MukF FC2 (E. coli))	MukB ATPase (steady state, phosphate release) with saturating FN2 at a 2.5-fold molar excess, against MukF (% of maximum ATPase) (MukF FN2 (E. coli) [2])	Kd [3] [nM]	Binder
2	–	–	–	MukF FN2 (domain or fragment, modifications not checked) MSEFSQTVPELVAWARKNDFSISLPVDRLSFLLAVATLNGERLDGEMSEGELVDAFRHVSDAFEQTSETIGVRANNAINDMVRQRLLNRFTSEQAEGNAIYRLTPLGIGITDYYIRQREFSTLRLSMQLSIVAGELKRAADAAEEGGDEFHWHRNVYAPLKYSVAEIFDSIDLTQRLMDEQQQQVKDDIAQLLNKDWRAAISSCELLLSETSGTLRELQDTLEAAGDKLQANLLRIQDATMTHDDLHFVDRLVFDLQSKLDRIISWGQQSIDLWIGYDRHVHKFIRT
–	60	33	9 to 26	MukB (natural protein) MIERGKFRSLTLINWNGFFARTFDLDELVTTLSGGNGAGKSTTMAAFVTALIPDLTLLHFRNTTEAGATSGSRDKGLHGKLKAGVCYSMLDTINSRHQRVVVGVRLQQVAGRDRKVDIKPFAIQGLPMSVQPTQLVTETLNERQARVLPLNELKDKLEAMEGVQFKQFNSITDYHSLMFDLGIIARRLRSASDRSKFYRLIEASLYGGISSAITRSLRDYLLPENSGVRKAFQDMEAALRENRMTLEAIRVTQSDRDLFKHLISEATNYVAADYMRHANERRVHLDKALEFRRELHTSRQQLAAEQYKHVDMARELAEHNGAEGDLEADYQAASDHLNLVQTALRQQEKIERYEADLDELQIRLEEQNEVVAEAIERQQENEARAEAAELEVDELKSQLADYQQALDVQQTRAIQYNQAIAALNRAKELCHLPDLTADCAAEWLETFQAKELEATEKMLSLEQKMSMAQTAHSQFEQAYQLVVAINGPLARNEAWDVARELLREGVDQRHLAEQVQPLRMRLSELEQRLREQQEAERLLADFCKRQGKNFDIDELEALHQELEARIASLSDSVSNAREERMALRQEQEQLQSRIQSLMQRAPVWLAAQNSLNQLSEQCGEEFTSSQDVTEYLQQLLEREREAIVERDEVGARKNAVDEEIERLSQPGGSEDQRLNALAERFGGVLLSEIYDDVSLEDAPYFSALYGPSRHAIVVPDLSQVTEHLEGLTDCPEDLYLIEGDPQSFDDSVFSVDELEKAVVVKIADRQWRYSRFPEVPLFGRAARESRIESLHAEREVLSERFATLSFDVQKTQRLHQAFSRFIGSHLAVAFESDPEAEIRQLNSRRVELERALSNHENDNQQQRIQFEQAKEGVTALNRILPRLNLLADDSLADRVDEIRERLDEAQEAARFVQQFGNQLAKLEPIVSVLQSDPEQFEQLKEDYAYSQQMQRDARQQAFALTEVVQRRAHFSYSDSAEMLSGNSDLNEKLRERLEQAEAERTRAREALRGHAAQLSQYNQVLASLKSSYDTKKELLNDLQRELQDIGVRADSGAEERARIRRDELHAQLSNNRSRRNQLEKALTFCEAEMDNLTRKLRKLERDYFEMREQVVTAKAGWCAVMRMVKDNGVERRLHRRELAYLSADDLRSMSDKALGALRLAVADNEHLRDVLRMSEDPKRPERKIQFFVAVYQHLRERIRQDIIRTDDPVEAIEQMEIELSRLTEELTSREQKLAISSRSVANIIRKTIQREQNRIRMLNQGLQNVSFGQVNSVRLNVNVRETHAMLLDVLSEQHEQHQDLFNSNRLTFSEALAKLYQRLNPQIDMGQRTPQTIGEELLDYRNYLEMEVEVNRGSDGWLRAESGALSTGEAIGTGMSILVMVVQSWEDESRRLRGKDISPCRLLFLDEAARLDARSIATLFELCERLQMQLIIAAPENISPEKGTTYKLVRKVFQNTEHVHVVGLRGFAPQLPETLPGTDEAPSQAS
